Positions count from the first letter of the chain named. Names may count otherwise. One block for each molecule: values may come before it.
Key:
[1] = molecular target: Fc receptor CD64, Avi-tagged (UniProt P12314); test: BLI, Avi-tagged receptor on streptavidin sensor; IgG complexed with TNFα
[2] = molecular target: T1, human Fibroblast Activation Protein (FAP), soluble antigen (human, UniProt Q12884 26-760, biotinylated when immobilized on streptavidin sensors); test: not stated (legend of FIG. 18B)
T1 construct: also called hFAP; biotinylated FAP

[3] = molecular target: T1, human Fibroblast Activation Protein …; test: not stated (legend of FIG. 27C)
[4] = molecular target: T2, IL-2hex, mutant human IL-2 (deltaA1/T3A/F42A/Y45A/L72G/C125S) (human, UniProt P60568 22-153); test: not stated (legend of FIG. 7B)
T2 chain: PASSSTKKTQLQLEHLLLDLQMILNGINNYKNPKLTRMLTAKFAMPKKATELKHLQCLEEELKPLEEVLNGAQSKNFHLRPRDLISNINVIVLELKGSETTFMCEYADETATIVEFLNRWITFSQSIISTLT

[5] = molecular target: T3, human FAP expressed on cells (HEK 293T-hFAP-E5; ExpiCHO-hFAP) (human, UniProt Q12884 1-760); test: flow cytometry, 1 µg/mL antibody
T3 construct: hFAP expression vector Sino Biologics HG10464-UT; also called hFAP expressing cells

[6] = molecular target: T1, human Fibroblast Activation Protein …; test: BLI per 6.1.3, human FAP;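 as to KD: biolayer interferometry with immobilized antigen on sensors, antibody association up to 240 s then dissociation up to 420 s, reference-subtracted, global 1:1 fit with unlinked Rmax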;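 as to kon: biolayer interferometry with immobilized antigen on sensors, antibody association up to 240 s then dissociation up to 420 s, reference-subtracted, global 1:1 fit with unlinked Rmax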
[7] = molecular target: T1, human Fibroblast Activation Protein …; test: BLI per 6.1.3, human FAP; remark: listed apart in the source;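 as to KD: biolayer interferometry with immobilized antigen on sensors, antibody association up to 240 s then dissociation up to 420 s, reference-subtracted, global 1:1 fit with unlinked Rmax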;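 as to kon: biolayer interferometry with immobilized antigen on sensors, antibody association up to 240 s then dissociation up to 420 s, reference-subtracted, global 1:1 fit with unlinked Rmax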
[8] = molecular target: T1, human Fibroblast Activation Protein …; test: Affinity (nM), Table 13B
[9] = molecular target: T2, IL-2hex, mutant human IL-2 …; test: Affinity (nM), Table 13B
[10] = molecular target: T2, IL-2hex, mutant human IL-2 …; test: cell-based or functional assay
[11] = molecular target: T3, human FAP expressed on cells (HEK …); test: cell-based or functional assay
[12] = molecular target: T2, IL-2hex, mutant human IL-2 …; test: BLI per 6.1.3; column head IL-2 KD
[13] = molecular target: T1, human Fibroblast Activation Protein …; test: BLI per 6.1.3
[14] = molecular target: T1, human Fibroblast Activation Protein …; test: bio-layer interferometry; the legend paragraph 249 gives the pair as B10 and FAP; which of the two is loaded on the sensor is not told
[15] = molecular target: T2, IL-2hex, mutant human IL-2 …; test: not stated in the sentence (BLI value of FIG. 4B, there told for IL-2)
[16] = molecular target: T4, human interleukin-2 (IL-2), wild type (human, UniProt P60568 21-153, biotinylated when immobilized); test: BLI, equilibrium binding analysis, biotinylated IL-2 on streptavidin sensor, monovalent Fab-Fc fusion of D002
T4 construct: also called biotinylated IL-2; IL2 WT

[17] = molecular target: T1, human Fibroblast Activation Protein …; test: BLI, FAP on streptavidin sensor, monovalent Fab-Fc fusion of D002
[18] = molecular target: T2, IL-2hex, mutant human IL-2 …; test: screening of phage libraries, monoclonal phage ELISA
[19] = molecular target: T1, human Fibroblast Activation Protein …; test: BLI; Table 11, antibody variants (Fab/scFv)
[20] = molecular target: T4, human interleukin-2 (IL-2), wild type; test: BLI; Table 11, antibody variants (Fab/scFv)
[21] = molecular target: T2, IL-2hex, mutant human IL-2 …; test: not stated (legend of FIG. 7C)
[22] = molecular target: T1, human Fibroblast Activation Protein …; test: not stated (legend of FIG. 20B)
[23] = molecular target: T2, IL-2hex, mutant human IL-2 …; test: not stated (legend of FIG. 20B)
[24] = molecular target: T1, human Fibroblast Activation Protein …; test: BLI; Table 11, single domain
[25] = molecular target: T4, human interleukin-2 (IL-2), wild type; test: BLI; Table 11 (N.B. = no detectable binding)

T4 sequence (P60568 21-153): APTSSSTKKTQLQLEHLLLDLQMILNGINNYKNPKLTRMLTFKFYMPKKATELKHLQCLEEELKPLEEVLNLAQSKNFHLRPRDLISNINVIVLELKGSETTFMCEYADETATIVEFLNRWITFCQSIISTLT
Fc receptor CD64, Avi-tagged, sequence (P12314 16-288 limits assumed): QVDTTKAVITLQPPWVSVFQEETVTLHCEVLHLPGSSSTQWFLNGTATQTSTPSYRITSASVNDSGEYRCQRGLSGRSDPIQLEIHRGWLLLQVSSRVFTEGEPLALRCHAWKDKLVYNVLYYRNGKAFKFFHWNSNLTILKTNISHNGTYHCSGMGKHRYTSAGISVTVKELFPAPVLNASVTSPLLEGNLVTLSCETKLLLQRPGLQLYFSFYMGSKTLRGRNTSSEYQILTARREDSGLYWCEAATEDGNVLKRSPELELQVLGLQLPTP

Kd [4]: ~20 nM
binding result [5]: binds
B2: two-in-one antibody D047 (bispecific antibody, V domains shown)
VH: EVQLVESGGGLVQPGGSLRLSCAASGFTFHYFSMSWVRQAPGKGLEWVSSISPTYGTTDYADSVKGRFTISRDNSKNTLYLQMNSLRAEDTAVYYCARLLYGTWFDYWGQGTLVTVSS
VL: DIQMTQSPSSLSASVGDRVTITCRASQGIKNYLNWYQQKPGKAPKLLIYAASSLQSGVPSRFSGSGSGTDFTLTISSLQPEDFATYYCQQGSYLQPTFGQGTKVEIKR
notes: Fab in FB-476

binding result [14]: binds
binding result [5]: binds
B5: two-in-one antibody B10 (bispecific antibody, V domains shown)
VH: EVQLVESGGGLVQPGGSLRLSCAASGFTFSRYSMGWVRQAPGKGLEWVSTIHSHGSGTRYADSVKGRFTISRDNSKNTLYLQMNSLRAEDTAVYYCARSQYGRYYSPDYYFDYWGQGTLVTVSS
VL: B2 VL with G28N, K30A, N31R, S92R, L94S, Q95P, P96F

binding result [18]: binds
Kd [19]: 30 nM
Kd [20]: > 5000 nM
B7: anti-IL-2/anti-FAP two-in-one antibody D001 (bispecific antibody, V domains shown)
VH: B5 VH with G35S, T50A, H52S, S53P, H54Y, S56G, R59D
VL: B2 VL with G28V, K30G, N31S, Y32S, S92R, Y93S, L94Y, Q95P, P96Y
notes: Fab/scFv or monovalent Fab-Fc

binding result [24]: binds
binding result [25]: no binding
binding result [5]: binds
B10: single domain anti-FAP antibody VHH6 (VHH)
VHH: EVQLVESGGGLVQPGGSLRLSCAASGFTFTPTYMYWVRQAPGKGLEWVSAIDPYGRTEYPDSVKGRFTISRDNAKNTLYLQMNSLRPEDTAVYYCAVRVPPGVYTYYRTGPYDYWGQGTLVTVSS

The remaining lines, values behind:

Molecule: Certolizumab IgG, wild-type IgG1 Fc (antibody)
CD64 Binding (% of wild-type Certolizumab-IgG1) [1]: 100%

B1: anchoring moiety of FB-675 and FB-676: scFv872-5Dbl(S-S) (scFv, V domains shown)
VH: EVQLVESGGGLVQPGGSLRLSCAASGFTFRGYIMSWVRQAPGKGLEWVSWIGPEGSRTGYADSVKGRFTISRDNSKNTLYLQMNSLRAEDTAVYYCARLLYGTWFDYWGQGTLVTVSS
VL: B2 VL with G28S, K30S, N31S, S92T, Y93L, Q95L
modifications: disulfide to VH at VL residue 100; disulfide to VL at VH residue 44
notes: also called scFv872-5V1
Kd [2]: ~5 nM
Kd [3]: ~50 nM

B3: anti-FAP antibody 872-5V1 (antibody, V domains shown)
VH: B1 VH
VL: B2 VL with G28S, K30S, N31S, S92T, Y93L, Q95L
notes: KD by BLI per 6.1.3 (monovalent Fab-Fc)
improvement of the affinity over parent 872-5 (fold) [6]: > 80 fold
Kd [7]: < 0.1 nM
kon [7]: 625000 M⁻¹ s⁻¹

B4: D029 HV2LV3 (bispecific antibody, V domains shown)
VH: EVQLVESGGGLVQPGGSLRLSCAASGFTFTWFFMSWVRQAPGKGLEWVSWIGPSGLYTDYADSVKGRFTISRDNSKNTLYLQMNSLRAEDTAVYYCARSQYGRYYSPDYYFDYWGQGTLVTVSS
VL: DIQMTQSPSSLSASVGDRVTITCRASGALGFYLNWYQQKPGKAPKLLIYAASSLSSGVPSRFSGSGSGTDFTLTISSLQPEDFATYYCQQGRTPPFTFGQGTKVEIKR
notes: also called Rev1-Q27G:L96F/S55L:S32F; two-in-one antibody within FB-675
Kd [8]: 3.7 nM
Kd [9]: 217 nM
EC50 of HEK-Blue IL2 assay (pM) with HEK 293T; variant as masking moiety of a configuration 3 immunoconjugate [10]: 5300 pM
EC50 of HEK-Blue IL2 assay (pM) with HEK 293T-hFAP-E5; variant as masking moiety of a configuration 3 immunoconjugate [11]: 31 pM
Kd [12]: 217 nM
Kd [13]: 3.66 nM
Kd [2]: ~3.66 nM

B6: anti-IL-2/anti-FAP two-in-one antibody D002 (bispecific antibody, V domains shown)
VH: EVQLVESGGGLVQPGGSLRLSCAASGFTFSRYSMSWVRQAPGKGLEWVSDISSYSTTYYADSVKGRFTISRDNSKNTLYLQMNSLRAEDTAVYYCARSQYGRYYSPDYYFDYWGQGTLVTVSS
VL: B4 VL with G27Q, A28S, L29I, F31N, Y32S, S55Q, T93R, P94S
Kd [15]: ~3400 nM
Kd [16]: 3400 nM
Kd [17]: ~50 nM

B8: D029 mutant Fab of FB-559 (D029HV1 with D029 VL) (bispecific antibody, V domains shown)
VH: B4 VH with F32S
VL: B4 VL with G27Q, A28D, L29G, F31N, A50G, S53T, S55Y, F96L
notes: The legend says only 'D029 mutant'
Kd [21]: ~400 nM

B9: D029-HV1LV1 (bispecific antibody, V domains shown)
VH: B4 VH with F32S
VL: B4 VL with G27Q, F96L
notes: also called D029 Rev1/S55L; D029HVILV1 (so in the source)
Kd [8]: 1.8 nM
Kd [9]: 427 nM
Kd [22]: > 5000 nM
Kd [23]: ~237 nM
EC50 of HEK-Blue IL2 assay (pM) with HEK 293T; variant as masking moiety of a configuration 3 immunoconjugate [10]: 6060 pM
EC50 of HEK-Blue IL2 assay (pM) with HEK 293T-hFAP-E5; variant as masking moiety of a configuration 3 immunoconjugate [11]: 42 pM

Source: patent publication US20240358849A1 (SUZHOU FUSE BIOSCIENCES, published 2024)
